Measurements published in the RNAGym collection of RNA variant scans (doi:10.7554/elife.80360).

B1: Hairpin Ribozyme (parent)
chain: GUCCUCUUUCACGUGCGCGUGAAAGAGAGAAGUGAACCAGAGAAACACACGUUGUGGUAUAUUACCUGGUA

Variants of: B1
Experiment: self-cleavage, relative activity (ratio to wild type); higher = more cleavage; co-transcriptional

Variant | self-cleavage
G40U U63A | 0.138
G40U A64C | 0.175
G40U A64U | 0.1
G40A G51U | 0.404
A41C C50A | 0.634
A39U U53C | 0.508
A41G A59U | 0.138
G40A G69C | 0.11
A41C U53G | 0.758
A39G U55A | 0.0918
A41C A49G | 0.561
A41C A49U | 0.0586
A39U A61U | 0.125
A39U A61G | 0.0916
G40C U63A | 0.183
G40C U63G | 0.135
G40A U58G | 0.19
G40A U58A | 0.134
G40A U63G | 0.126
A41G A43U | 0.152
A41G A43C | 0.285
G40A U53G | 0.169
G40A U53C | 0.46
A39G U60A | 0.228

Variant | self-cleavage
A39G G68U | 0.107
G40A U52A | 0.352
G40A U52C | 0.347
G40C G54C | 0.114
A39G C66A | 0.101
A39G C66U | 0.194
A41C U67C | 0.249
A41G C46A | 0.151
G40C A41C | 0.108
A39G G51C | 0.232
A39G G51U | 0.36
G40C G56C | 0.122
G40C G68U | 0.148
A41C U55C | 0.484
G40A A44C | 0.161
G40A A44G | 0.144
A39U A71U | 0.19
G40U C65A | 0.158
A41C G57C | 0.226
A41C | 1.21
A41G | 0.913
A41C G42A | 0.805
G40A A41G | 0.263
G40A A41U | 0.608

Variant | self-cleavage
G40U C48G | 0.189
G40U C48U | 0.181
G40U G69U | 0.0875
A39U C66U | 0.213
A41C G54A | 0.829
G40U U53A | 0.121
G40U A47C | 0.118
G40U A47G | 0.18
G40A G42U | 0.127
G40A | 0.329
G40C | 0.128
G40U | 0.175
A39U U62A | 0.126
A39U G54U | 0.163
G40U U62A | 0.141
G40U U62C | 0.212
A41G C48G | 0.121
G40U A44C | 0.105
G40U A44U | 0.142
A39U A47U | 0.164
A41G A44U | 0.185
G40C C46U | 0.116
A39G G54A | 0.143
A39G G54C | 0.131

Variant | self-cleavage
G40C U67C | 0.098
G40A A59C | 0.121
G40A A59U | 0.136
G40U U58A | 0.155
A41C A59C | 0.17
A41G A71U | 0.733
A41G A71G | 1.08
A41G A71C | 1.34
A39U U70C | 0.247
A41C A43G | 0.191
G40C C48U | 0.135
G40C C48A | 0.128
G40C G57U | 0.106
G40C G57C | 0.134
A41G A61U | 0.195
A41G A61C | 0.299
G40C A44C | 0.0317
A39U U52G | 0.252
A39U U52A | 0.406
A39U C65G | 0.232
G40U U70C | 0.12
A39U A45U | 0.142
G40C C50G | 0.12
G40C A43C | 0.168

Variant | self-cleavage
G40C A43U | 0.128
A39G U58G | 0.114
A39G U58A | 0.217
A41C A47U | 0.229
A39G G40C | 0.0572
A39G G40U | 0.116
G40C U53C | 0.168
G40C U53G | 0.103
G40A C48G | 0.135
G40A C48U | 0.136
G40A C48A | 0.246
G40U U60A | 0.191
G40A C66A | 0.322
G40U G56C | 0.147
G40U G56A | 0.174
A41C G56C | 0.237
G40C A47C | 0.142
A39U A64G | 0.116
G40U G42A | 0.202
A39G U52C | 0.26
A39G U52G | 0.3
G40U U67G | 0.151
G40U U67C | 0.0949
A41C A71U | 1.18

Variant | self-cleavage
A41C A71G | 1.26
A39G U53A | 0.295
A41C U58G | 1.18
A41C U58C | 1.2
A41C A64G | 0.173
A41C U52G | 0.654
G40C G69C | 0.169
G40C C65U | 0.129
G40A A64G | 0.119
A39G G42U | 0.107
A39G G42C | 0.129
G40C U60G | 0.102
G40C U60A | 0.0252
A41C C48U | 0.183
G40C U62G | 0.0847
G40C A64C | 0.126
G40C A64G | 0.129
G40C A61C | 0.107
G40C A45C | 0.0755
G40U C66U | 0.223
G40A U70C | 0.136
A41C U70A | 0.732
A41C U70G | 0.91
A39U G68U | 0.225

Variant | self-cleavage
G40A C50G | 0.243
A41C A61G | 0.304
G40A G68C | 0.223
G40A G68U | 0.156
G40A G68A | 0.211
A41G A47G | 0.0362
A39U A49G | 0.169
A39G C65G | 0.152
A39U G56U | 0.189
A39U G56C | 0.169
G40U G51C | 0.104
A39G C50U | 0.148
A41G A64G | 0.326
G40A U62C | 0.141
G40A U62A | 0.12
G40A C65G | 0.0639
G40A A61U | 0.177
A39U A44U | 0.102
A39U A44C | 0.127
A39U U67A | 0.73
A39U U67C | 0.286
G40A A43C | 0.147
G40A A45C | 0.0818
